The record followed here is the domain aggregation screens of Martell et al. (2025).

The nature of this series: soluble fraction after stress (log2 fold change); higher = more stays soluble; pooled small domains, quantitative proteomics. The following applies: stress: pH 4. The procedure, abridged: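 Custom libraries of small protein domains were pooled and measured with high-throughput quantitative proteomics after pH 4 stress. The read-out is the fold change in the amount of each domain that stays soluble after the acid stress, taken as a measure of aggregation propensity. Fold changes are on a log2 scale, and higher values mean more of the domain stayed soluble.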
As to “HMDLDYSGIMNVLNQKYHITFYNNKKIQNLMPKLMIIMGYNSIINEIGHSKSLKALINSFEEKLKSYILT”, the “soluble fraction (log2)” value is -0.403.

For “HMDLEGLSNKELVTLRGQIQDDLNKWATEVGIIDPKNRPDDYNRALQSLEDAKRQRSAIDAKL”, the “soluble fraction (log2)” value is -0.38.

For “HMDLEIENYDLREILNLFKLDYNFDNVDLKRAQKIALKTHPDKSNLPKEYFMFFMKAFQIVQQIYYYRY”, the “soluble fraction (log2)” value was -1.09.

Turning to “HMDLFREERRQAILDWLATAGRVSVAELSASFGVSEVTVRADLQALADRRLVVRTHGGAMMAG”, the “soluble fraction (log2)” value is -0.955.

For the sequence “HMDLHSQVFESYERKIREVLREGPLTFEEILHAFALKRHETVAQVITYLMDEGKMSDSGDGKLIYSG”, the “soluble fraction (log2)” value was -0.295.

Take “HMDLIISDIRMPEMRGDDFLEWIKANELFKHIPVIMLSSEDSTTERIRLLEIGAEDYIVKPFNPMELKIR”: the “soluble fraction (log2)” value is -1.01.

Turning to “HMDLLIFSPSLGQHVRDLKRVIDRLHQHGIPVRWQKAKLLREEIEYIGWTWKSGGLIDPTNV”, the “soluble fraction (log2)” value was 0.337.

Consider “HMDLMSTNEKLLYTMRYLISKSLDGAITEEEIRRLDRLIIENSQARAYYVEYLQIHTHLRKLMQQNPELK”, for which the “soluble fraction (log2)” value is -1.15.

With “HMDLRIIKTKKAIKTAFLNLLKENKYHNITISAISETALINRKTFYAHYETKDELYADVIEDALRVLSP”, the “soluble fraction (log2)” value is -1.04.

Regarding “HMDLRIKEIMSERNVTSAWLAEKVGISKVAVSNIVTGKSSPSLDNLLKIADALNVSITTLIG”, the “soluble fraction (log2)” value was determined as 0.305.

As to “HMDLRYKVQYNFIDQGMMTKDELLKFSLNQDDVSKIAVFDNDSKQWKEIYAITEISEKLGIS”, the “soluble fraction (log2)” value was -1.57.

In the case of “HMDLTIEQTTVLGKRLFSNALNSLGKKQRNIKKDAIESLLKRMNLKDMDQLYESIGIGDKSPLLMAQILL”, the “soluble fraction (log2)” value came out at 0.0239.

Take “HMDLVIALNSRIRVIREPFFGKLGTVIDLPHKLHKMESGTMTRVAKIKFDDRTEEIIPRTNLEVILS”: the “soluble fraction (log2)” value is -0.35.

“HMDLYEILGVRRGAGGGEIRRAYRRLARRYHPDVNPGDREAQARYALITRAFETLNDPERRRAYDAGVP”: the “soluble fraction (log2)” value was found to be 0.0754.

In the case of “HMDMAENEEYKVIMGQAQQLAEQFFPADDNTRRIMLGQLKLENYSLYLLTKQILDEATKGQAAAAN”, the “soluble fraction (log2)” value is -0.651.

For “HMDNFDVVLTSPGDQKVQVIKAVRSITGLGLKEAKDLVDGAPNTVKEGVKKLDAEEMLKQLTEAGATGEL”, the “soluble fraction (log2)” value is -0.366.

Consider “HMDNFQFIGYSQQQGQIAVAWIKSLDNGRLVRVEVSDSLEGWRVSDISAQGVNLTKGQQWLMLKRL”, for which the “soluble fraction (log2)” value was -1.37.

As for “HMDNIGKTLGQNQTRQYKVAYAEAAKLPAIIMGLVPLPKPPVVDERLRSLYVTATPEQHRQIETLMNRI”, the “soluble fraction (log2)” value is -0.64.

Take “HMDNITIYSSNGKIYVNAIGGEKIELFNITGQKVAEKVAVSGINVLDAVYDITLVKVGSKVVKVV”: the “soluble fraction (log2)” value was -1.41.

As for “HMDNLATRILKELNNNDGFLPLSDKSQPEAIYQAFGISKKSYKTAIGTLYKKRLITISENGIQLTD”, the “soluble fraction (log2)” value is -0.2.

For the sequence “HMDNLSQMQERILEFIIRSKDQSGYTPSLREIGDEVGLKAVSSVKYQLEQLKDAHYISFDANTARAIRVLI”, the “soluble fraction (log2)” value was -0.438.

For the sequence “HMDNMFVEERQALIYEELQSNGRVRVKDLSKKFNVSEDLIRKDLNVLEKEGKLRKIYGGAVLAK”, the “soluble fraction (log2)” value was 0.071.

Turning to “HMDNNNQAAFMGALNSLKEYAKVNGNIVTKQDVESYFKDLGLDDSKYQMITGYLLANDITVKG”, the “soluble fraction (log2)” value is -0.0847.

As to “HMDNQYGVYSDEKNNVEIHWKRIDHPSVAKDHLDIEAYQNGKRVDINNQQADHYRYLINQEMNE”, the “soluble fraction (log2)” value stood at 0.226.

For the sequence “HMDPAFAQHHDRALSILHSRGYEVHDSDTDLHWARPVLEFEAYKGSLEYKIVMSYPDLNIIEERVD”, the “soluble fraction (log2)” value is -0.685.

For the sequence “HMDPASYEARLSTLREQGAQQLDPVRFQYLATLAQRLPTQTPGVALILANKLRAGLSDYEQRLSEAGS”, the “soluble fraction (log2)” value was -0.0623.

Take “HMDPDAIVSKGQLGALNNAIGRFIAQGGSQTVVDKGIAKRNPNAKKPADLTNSQAESLEAAILKILNG”: the “soluble fraction (log2)” value was determined as 0.121.

With “HMDPLGALSDRERQVLALIGQGHGLQAIADQLGVSYKTAANTSSALKKKLGVDGINGLMKFALDSG”, the “soluble fraction (log2)” value was found to be 0.023.

Take “HMDPLGGFTKGDVDMDGRVAVNDAVMVLKNAIKLMELDTQQLMLADADNDGKITVNDAVMILKKAIKLID”: the “soluble fraction (log2)” value was -0.478.

Regarding “HMDPTLFRLNILEGLGLEKKNLTSEEQEQLRFLYEHFSMKEILMTIDYIKKLNLEKSIVNLYRLMQHP”, the “soluble fraction (log2)” value is -0.581.

As to “HMDPTVEENKLNPRDLLIIQRVKEGRTNKEIAEELNVAEITVKKQLSSLYQRYKVHNRNQLLLALD”, the “soluble fraction (log2)” value came to 0.245.

Consider “HMDPVQLEVIKKLNLLNAQKPKDIYALRDVLSEMFPQSDIRLLLKELLDKGYIYWNGHEVIYSHEMF”, for which the “soluble fraction (log2)” value is -0.431.

As to “HMDPYEYQLELEKLINNATELNKKYNYDPLKDKILAADAVKNSLETYVLQNYIVALENEIKQTLNQYQIL”, the “soluble fraction (log2)” value was -0.754.

Consider “HMDQNDYMLTRIRNGQMRNKVSVSMPASKIKSAIAAVLKDEGYIENFALNDSSGKPSLIVNLKYYAGQPV”, for which the “soluble fraction (log2)” value is -0.0771.

With “HMDQPVIDVREFGARGDGKQDDAPAIQAAVRLAEQLGGGRVVVPATREFYLLGSTIRIRGHHVTLTGPGAR”, the “soluble fraction (log2)” value was 0.0605.

As to “HMDRAIAAHLEARVRDALKQLSPEQTRVIELFFFDNKTHAEIENDLKIPLGTVKSRLRLALNKLRASL”, the “soluble fraction (log2)” value was -0.234.

Take “HMDRASGEEEALKEAEDAISRVWEFDGPVELNPQNSYLRRLQHELASRYNVKSVSIGQEPNRRVVYYK”: the “soluble fraction (log2)” value is -0.428.

Consider “HMDRDPAEAGYDDGYLSGNTDGMNNDERATYDESSQYPTPDERQSYAAAYRRGYAAGFADGRKQAV”, for which the “soluble fraction (log2)” value was -0.138.

As to “HMDREIVEAIVPLEAAGKRFDAALAEMFPEFSRSRLTEWIKAGDALLAGEIVKPKVSVRGGEAVSLSIRV”, the “soluble fraction (log2)” value was -0.256.

“HMDRELVALVQKALSQLSEQQRRIVELHVMEGMKYLEIADLLQLSENTVRTHLKRAYKILRENH”: the “soluble fraction (log2)” value was -0.921.

Regarding “HMDRERFIKLGREIARAAFENVGKKATDKVLNSAAKKLRLEDGDEVLARLGSAEIEARSVVQAVYPDLI”, the “soluble fraction (log2)” value was determined as 0.336.

On to “HMDRKARRKYIEQVVNDRKIETQEELLKLLTEAGFETTQATISRDIHALNIVKANDGDGHTHYVQLH”, for which the “soluble fraction (log2)” value is 0.0264.

Turning to “HMDRKEEIIIVTLKLASQIGLSNVSMEQIAKQVGIKKPSLYNHFKSKDEIIDAMYEYLREKSKN”, the “soluble fraction (log2)” value was -1.16.

Take “HMDRMIPPYGLEVTYDKTTHIIFPSAVRYVDLGSPNLIAGKADGSENVIRVKATRKNFREETNMSVITE”: the “soluble fraction (log2)” value is -0.0773.

For “HMDRPEPLYIVNGKEVQTLEEAFELGRTLGSAKKGTQVRLRRLLPEEGVEKYGEKGRNGVFEFMVSA”, the “soluble fraction (log2)” value stood at 0.385.

Regarding “HMDRPLRTKEHFARFAGEQVVVKTSSPIDGRSSFTGTLEGMEGDDVIVEVDGSRIAIGYSLIKRAHVVG”, the “soluble fraction (log2)” value is 0.406.

Turning to “HMDRRFFVAEENYKRLDVFLSERMEEFTRSRIKKLIDEGHVELNGKSAKAGAEIRPGDEVAAEIPEVKE”, the “soluble fraction (log2)” value stood at 0.239.

As for “HMDRRIDIANAVKTALGSLPERQKTAIVLVHYEGFSGAETAKLLGISVEAVESLLARARRNLRQTLGP”, the “soluble fraction (log2)” value was -0.586.

Regarding “HMDRTIGEIGLVTETIDSTLESGRVMVDGLSWKARTSDNTVLEAGTRVQVKEIHGVTLTVEKA”, the “soluble fraction (log2)” value is 0.147.

On to “HMDRTLTYTVSIEESDLRADQFLSRRGFSSHLLTRLRKNMEHLLINGTPSRTNTHLHEGDILTVHIVEE”, for which the “soluble fraction (log2)” value is -0.249.

On to “HMDRWTPLIVAVLIEGSHRFGELRSAIGGITPKVLTETLRSMERDGLVTRDQVPGVPPRVDYALTPLG”, for which the “soluble fraction (log2)” value was -0.434.

On to “HMDRYVDEEKRFYWRSGEAYLNFSKYKDRSLAEVATVDPGFLRWMMEADFSPETKQIVERALEGEFPQKK”, for which the “soluble fraction (log2)” value is -0.244.

Regarding “HMDSADADLLRRIEDLLSSRRSVIREARLADMLGVPRDQVARALDLLQERGVIGLTTDSGMKRIAFRRN”, the “soluble fraction (log2)” value was found to be 0.111.

In the case of “HMDSAQLARWAATILAQNGRKITPSTMNLFLERVGDDMENIRMELEKLISYTMGSEVVTAEDVKVITTVQ”, the “soluble fraction (log2)” value is -0.82.

Regarding “HMDSAVLQKHLVKLIELHAPIKARNLAKILADEFGKHVDRSAVNSALYSLKAERKVEVNSSYEWSLD”, the “soluble fraction (log2)” value was determined as 0.252.

As for “HMDSDRAARLSSLTPQQFRVLRMVSEGQLNKQIAYQLNISEATVKSHVSAILQKLGVNSRTQAVILATRLD”, the “soluble fraction (log2)” value was 0.147.

With HMDSEQLSGLVNMGFSVYQAKTALEMFDNDIERAANYL, the “soluble fraction (log2)” value was -0.871.

For the sequence “HMDSERTALLSSDRTSFTAREAALLIGVSQRDIYRMIEDELLDSFTVGKMIRIRRSALEWWLS”, the “soluble fraction (log2)” value is -1.46.

For “HMDSFEEGTYRKNQRGFGFVKIENQEDEIFISKENSLNALNGDRVIVEIIEDKDRTKRAEGKIKKILKHE”, the “soluble fraction (log2)” value was -0.086.

For “HMDSGLLSAREREVAGLVLSGMTYAEIGEAIFISPRTAEHHIARIRRRLGATSRTDLIAKLQAIVGID”, the “soluble fraction (log2)” value is -1.42.

Turning to “HMDSGVPEWLASALRASPVAWKNFLALPPSHQRRYVGWISSARRDETRNRRIAEAISLLVEHKRLG”, the “soluble fraction (log2)” value is 0.0211.

For “HMDSIKDQIYQILKEDILTGELRSGEQLVEQTIAARFNTSRSPVREAIKQLTGDGLVINITNKGTFVK”, the “soluble fraction (log2)” value was -0.0915.

Consider “HMDSISEQIYSIIKEEILLAKRKPGEQINPRKLADEFETSVMPIRDALNQLANEGLVIRKPRVGFFVR”, for which the “soluble fraction (log2)” value was -0.177.

With “HMDSITEADLLRWAHALSGIARTGLGFTESRYERERYEEVLAVAADILAASSRSHDRAALVDEWLKMVGV”, the “soluble fraction (log2)” value is -1.55.

For the sequence “HMDSKKNLLGKNGLAFTTLRPAGTVLIDGQRHDVISNGDMIPKGATVRVIAIEGASITVEALPD”, the “soluble fraction (log2)” value was -0.309.

Regarding “HMDSMATVPDLVGKTEDEAKALANDAHLGVQMAGEEASDQEKGKISRQETAAGTQVAEYTTVKYWVSTGTQ”, the “soluble fraction (log2)” value turned out to be 0.154.

On to “HMDSPALAIPSSAILRDGLEHIFFRQDPSDPDQVIRVVADLGLSDGRWTVVRSGLERTDQVVLSGA”, for which the “soluble fraction (log2)” value is -0.281.

With “HMDSQKKNETLSSTADEIIKNYAGKRDLSEESMEQLEQFQKDMRGADVNIFTAAQIRMLDQIFQENLH”, the “soluble fraction (log2)” value worked out at 0.0679.

With “HMDSSLVWVDYLLGSKLTKLNSSNELTGPGASAKTIGAFLGENKQSFDLYIESVHNARDTYSDILTHGT”, the “soluble fraction (log2)” value is -0.122.
